Laboratory results as given in patent publication US20180002437A1 (ABRUZZO THERANOSTIC S R L, published 2018).

Experiments:
[1] = target: T1, human Trop-2 on the cell surface (native, endogenous or transfected) (human, UniProt P09758 27-323); experiment: flow cytometry competition with 2G10-488 on MTE 4-14/Trop-2 and MCF7 cells (sentence also sums up the competitive ELISA)
T1 construct: On Colo205, HT29 and MCF7 cells (endogenous) and on KM12SM and murine MTE 4-14 cells transfected with Trop-2; For the transfectants the species of the Trop-2 is not repeated in the sentence; also called TACSTD-2; native Trop-2
T1 sequence: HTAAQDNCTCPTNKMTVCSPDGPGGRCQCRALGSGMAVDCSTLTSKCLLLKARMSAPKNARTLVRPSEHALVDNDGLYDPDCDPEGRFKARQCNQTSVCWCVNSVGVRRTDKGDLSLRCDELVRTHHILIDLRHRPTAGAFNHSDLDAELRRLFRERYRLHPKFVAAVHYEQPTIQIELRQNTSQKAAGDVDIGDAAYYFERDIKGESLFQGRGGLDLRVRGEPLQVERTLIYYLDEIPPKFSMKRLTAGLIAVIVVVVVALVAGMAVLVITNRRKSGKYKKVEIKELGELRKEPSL
From the text: The binding to Trop-2 of the purified Ch2G10, Hu2G10-5 and Hu2G10-6 antibodies was also characterized by flow cytometry using alive cells that express native surface Trop-2 (either ndogenous or transfected). […] The cells were then washed and analyzed by flow cytometry as described.

[2] = target: T1, human Trop-2 on the cell surface …; experiment: flow cytometry competition on Colo205 cells (FIG. 31 and FIG. 37)
Description: FIG. 37: Relative affinity of the 2EF and Hu2EF-7 antibodies for native Trop-2—Flow citometry analysis. Human colon cancer COLO205 cells, which are positive for Trop-2, were incubated with FITC-labelled 2EF antibody pre-mixed with increasing concentrations of unlabelled Hu2EF-7 purified from CHO-K1 or YB2/0 cells.
(§1) The relative affinity of Hu2EF-4 e Hu2EF-5 for the native Trop-2 antigen was also analysed by means of […] competitive binding measured by flow cytometry on live tumor cells that express surface Trop-2. […] After 20 min at 4° C. cells were washed with 5 ml of SM and resuspended in 500 μl di SM with 0.5 μg/ml propidioiodide to discriminate dead cells). Fluorescence was then analysed by flow cytometry (FACScalibur, FACScan, Becton Dickinson, Sunnyvale, Calif.) as previously described (Alberti, Nutini et al. 1994) (FIG. 31). […] Simila results were obtained for the Hu2EF-4 antibody.

[3] = target: T1, human Trop-2 on the cell surface …; experiment: cell-based or functional assay
[4] = target: T1, human Trop-2 on the cell surface …; experiment: flow cytometry competition on Colo205 cells, competitor of 2EF-488 at 9x and 27x
Description: as §1

[5] = target: T1, human Trop-2 on the cell surface …; experiment: flow cytometry competition on Colo205 cells, competitor of 2EF-488
Description: as §1

[6] = target: T1, human Trop-2 on the cell surface …; experiment: flow cytometry, MCF-7 cells, goat anti-human Alexa-488
Description: FIG. 38: Specific recognition of Trop-2 by the humanized monoclonal antibodies according to the present invention - analysis by flow cytometry. (A) human metastatic colon cancer KM12SM cells transfected with a vector expressing Trop-2 (left panel) or with the empty vector (right panel) were incubated with the ‘humanized anti-Trop-2 monoclonal antibody Hu2EF-7. […] Unstained negative controls (thin line) are shown for comparison. (B) Human colon cancer HT29 cells (left panel) or breast cancer MCF-7 cells (right panel) expressing Trop-2 were incubated with the humanized Hu-2EF-7 and Hu-2G10-6anti-Trop-2monoclonal antibodies respectively.

B1: chimeric 2G10 IgG1/kappa antibody (Ch2G10) (antibody, V domains shown)
VH: QGQMQQSGAELVKPGASVKLSCKTSGFTFSSSYISWLKQKPRQSLEWIAWIYAGTGGTSYNQKFTGKAQLTVDTSSSTAYMQLSSLTSEDSAIYYCARHNPRYYAMDYWGQGTSVTVSS
VL: ETTVTQSPASLSMAIGEKVTIRCITSTDIDDDMNWYQQKPGEPPKLLISEGNTLRPGVPSRFSSSGYGTDFVFTIENMLSEDVADYYCLQSDNLPYTFGGGTKLEIKR
notes: also called Ch2G10-IgG1/k
B1: binds [1].

B2: mouse 2G10 antibody (hybridoma PD 08020) (antibody, V domains shown)
VH: QGQMQQSGAELVKPGASVKLSCKTSGFTFSSSYISWLKQKPRQSLEWIAWIYAGTGGTSYNQKFTGKAQLTVDTSSSTAYMQLSSLTSEDSAIYYCARHNPRYYAMDYWGQGTSVTVSS
VL: ETTVTQSPASLSMAIGEKVTIRCITSTDIDDDMNWYQQKPGEPPKLLISEGNTLRPGVPSRFSSSGYGTDFVFTIENMLSEDVADYYCLQSDNLPYTFGGGTKLEIK
notes: Mouse monoclonal from the hybridoma; also called murine 2G10
B2: binds [1].

B3: mouse 2EF antibody (hybridoma PD 08021) (antibody, V domains shown)
VH: QVQLQQSGAELVRPGTSVKMSCKAAGYTFTNYWIGWVKQRPGHGLEWIGDIYPGGGYTNYNEKFKGKATLTADTSSSTAYMQLSSLTSEDSAIYYCARGTGGGDYWGQGTLVTVSA
VL: DIVLTQSPASLAVSLGQRATISCRASQSVSTSSYSYMHWYQQKPGQPPKLLIKYASNLESGVPARFSGSGSGTDFTLNIHPVEEEDTATYYCQHSWEIPYTFGGGTKLEIK
notes: Mouse monoclonal purified from the hybridoma; also called murine 2EF
B3: binds [2].

B4: humanized Hu2EF-7 antibody (Hu2EF VH7 and VL2, IgG1/kappa) (antibody, V domains shown)
VH: QVQLVQSGAEVKKPGASVKVSCKASGYTFTNYWIGWVKQAPGQGLEWIGDIYPGGGYTNYNEKFKGRATLTADTSASTAYMELSSLRSEDTAVYYCARGTGGGDYWGQGTLVTVSS
VL: DIVLTQSPDSLAVSLGERATINCRASQSVSTSSYSYMHWYQQKPGQPPKLLIKYASNLESGVPDRFSGSGSGTDFTLTISSLQAEDVAVYYCQHSWEIPYTFGGGTKLEIKR
With B4 the “EC50 of ADCC reporter bioassay (luciferase luminescence; Jurkat effector cells with V158 FcgammaRIIIa and NFAT-luciferase; MCF7 target cells)” value [3] was 0.052 µg/mL.

B5: humanized Hu2EF-5 antibody (VH5-Hu2EF and VL1-Hu2EF, IgG1/kappa) (antibody, V domains shown)
VH: QVQLVQSGAEVKKPGASVKVSCKASGYTFTNYWIGWVRQAPGQGLEWIGDIYPGGGYTNYNEKFKGRATLTADTSTSTAYMELSSLRSEDTAVYYCARGTGGGDYWGQGTLVTVSS
VL: DIVMTQSPDSLAVSLGERATINCRASQSVSTSSYSYMHWYQQKPGQPPKLLIKYASNLESGVPDRFSGSGSGTDFTLTISSLQAEDVAVYYCQHSWEIPYTFGQGTKLEIK
notes: human IgG1/kappa constant regions
B5: binds [4].

B6: humanized Hu2EF-4 antibody (VH4-Hu2EF and VL1-Hu2EF, IgG1/kappa) (antibody, V domains shown)
VH: QVQLVQSGAEVKKPGASVKVSCKASGYTFTNYWIGWVRQAPGQGLEWIGDIYPGGGYTNYNEKFKGRATLTADTSASTAYMELSSLRSEDTAVYYCARGTGGGDYWGQGTLVTVSS
VL: DIVMTQSPDSLAVSLGERATINCRASQSVSTSSYSYMHWYQQKPGQPPKLLIKYASNLESGVPDRFSGSGSGTDFTLTISSLQAEDVAVYYCQHSWEIPYTFGQGTKLEIK
notes: as for B5
B6: binds [5].

B7: humanized Hu2G10-6 antibody (Hu2G10 VH2 and VL3, IgG1/kappa) (antibody, V domains shown)
VH: QVQLVQSGAEVKKPGASVKVSCKASGFTFSSSYISWLRQAPGQRLEWIAWIYAGTGGTSYNQKFTGRVTLTVDTSASTAYMELSSLRSEDTAVYYCARHNPRYYAMDYWGQGTTVTVSS
VL: DTQMTQSPSSLSASVGDRVTITCITSTDIDDDMNWYQQKPGKAPKLLISEGNTLRPGVPSRFSGSGYGTDFTFTISSLQPEDIATYYCLQSDNLPYTFGGGTKVEIKR
B7: binds [6].

B8: humanized Hu2G10-5 antibody (Hu2G10 VH1 and VL3, IgG1/kappa) (antibody, V domains shown)
VH: QVQLVQSGAEVKKPGASVKVSCKASGFTFSSSYISWLRQAPGQRLEWIAWIYAGTGGTSYNQKFTGKATLTVDTSASTAYMELSSLRSEDTAVYYCARHNPRYYAMDYWGQGTTVTVSS
VL: DTQMTQSPSSLSASVGDRVTITCITSTDIDDDMNWYQQKPGKAPKLLISEGNTLRPGVPSRFSGSGYGTDFTFTISSLQPEDIATYYCLQSDNLPYTFGGGTKVEIKR
With B8 the “EC50 of ADCC reporter bioassay (luciferase luminescence; Jurkat effector cells with V158 FcgammaRIIIa and NFAT-luciferase; MCF7 target cells)” value [3] was 4.15 µg/mL.
